B1: A1R, untagged (plasmid ARJ194: pCEP4 A1R) (receptor)
chain: MPPSISAFQAAYIGIEVLIALVSVPGNVLVIWAVKVNQALRDATFCFIVSLAVADVAVGALVIPLAILINIGPQTYFHTCLMVACPVLILTQSSILALLAIAVDRYLRVKIPLRYKMVVTPRRAAVAIAGCWILSFVVGLTPMFGWNNLSAVERAWAANGSMGEPVIKCEFEKVISMEYMVYFNFFVWVLPPLLLMVLIYLEVFYLIRKQLNKKVSASSGDPQKYYGKELKIAKSLALILFLFALSWLPLHILNCITLFCPSCHKPSILTYIAIFLTHGNSAMNPIVYAFRIQKFRVTFLKIWNDHFRCQPAPPIDEDLPEERPDD

biological target: Gαi (endogenous in HEK-293 cells) (human (endogenous in HEK-293)) (UniProt P63096)
Sequence of UniProt P63096 (P63096 whole entry): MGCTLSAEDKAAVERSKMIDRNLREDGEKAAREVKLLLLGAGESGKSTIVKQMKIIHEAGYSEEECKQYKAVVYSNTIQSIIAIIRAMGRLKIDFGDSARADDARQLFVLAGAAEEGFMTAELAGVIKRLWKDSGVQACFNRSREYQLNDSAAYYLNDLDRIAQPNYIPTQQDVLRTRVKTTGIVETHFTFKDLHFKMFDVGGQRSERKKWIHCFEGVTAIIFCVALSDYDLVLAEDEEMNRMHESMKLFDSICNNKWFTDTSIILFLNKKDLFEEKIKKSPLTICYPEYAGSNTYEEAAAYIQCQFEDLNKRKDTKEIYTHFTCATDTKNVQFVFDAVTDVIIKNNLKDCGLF

Molecule | reduction in cAMP signaling in transiently transfected HEK-293 cells, 1 µM CPA with 10 μM forskolin, normalized to forskolin treated cells [%]
A1/A2AR chimera, untagged (plasmid ARJ195: pCEP4 A1/A2AR) (from UniProt P30542 1-290; P29274 291-412) (receptor) | 72
A1/A2AΔ316R truncated chimera, untagged (plasmid ARJ196: pCEP4 A1/A2AΔ316R) (from UniProt P30542 1-290; P29274 291-316) (receptor) | 67
B1 | 62

— paper PMC7764039
